# Molecular target: T1, MAMDC4 (UniProt Q63191 22-1216)
# T1 construct: HEK293 cells also hold endogenous (human) MAMDC4, which the anti-MAMDC4 antibody may precipitate as well; also called Endotubin; AEGP; source: HEK293, transfected (overexpressed), in lysate
# Assay: co-IP; HEK293 cells overexpressing MAMDC4, control or 50% Wnt3a conditioned media for 6hrs; NP-40 lysis buffer; lysates precipitated with anti-MAMDC4 (hybridoma supernatant) or control IgG on Protein G Dynabeads overnight at 4°C; immunoblot; input 1/50th of lysate
# Details: partners not purified
# T1 sequence (Q63191 22-1216): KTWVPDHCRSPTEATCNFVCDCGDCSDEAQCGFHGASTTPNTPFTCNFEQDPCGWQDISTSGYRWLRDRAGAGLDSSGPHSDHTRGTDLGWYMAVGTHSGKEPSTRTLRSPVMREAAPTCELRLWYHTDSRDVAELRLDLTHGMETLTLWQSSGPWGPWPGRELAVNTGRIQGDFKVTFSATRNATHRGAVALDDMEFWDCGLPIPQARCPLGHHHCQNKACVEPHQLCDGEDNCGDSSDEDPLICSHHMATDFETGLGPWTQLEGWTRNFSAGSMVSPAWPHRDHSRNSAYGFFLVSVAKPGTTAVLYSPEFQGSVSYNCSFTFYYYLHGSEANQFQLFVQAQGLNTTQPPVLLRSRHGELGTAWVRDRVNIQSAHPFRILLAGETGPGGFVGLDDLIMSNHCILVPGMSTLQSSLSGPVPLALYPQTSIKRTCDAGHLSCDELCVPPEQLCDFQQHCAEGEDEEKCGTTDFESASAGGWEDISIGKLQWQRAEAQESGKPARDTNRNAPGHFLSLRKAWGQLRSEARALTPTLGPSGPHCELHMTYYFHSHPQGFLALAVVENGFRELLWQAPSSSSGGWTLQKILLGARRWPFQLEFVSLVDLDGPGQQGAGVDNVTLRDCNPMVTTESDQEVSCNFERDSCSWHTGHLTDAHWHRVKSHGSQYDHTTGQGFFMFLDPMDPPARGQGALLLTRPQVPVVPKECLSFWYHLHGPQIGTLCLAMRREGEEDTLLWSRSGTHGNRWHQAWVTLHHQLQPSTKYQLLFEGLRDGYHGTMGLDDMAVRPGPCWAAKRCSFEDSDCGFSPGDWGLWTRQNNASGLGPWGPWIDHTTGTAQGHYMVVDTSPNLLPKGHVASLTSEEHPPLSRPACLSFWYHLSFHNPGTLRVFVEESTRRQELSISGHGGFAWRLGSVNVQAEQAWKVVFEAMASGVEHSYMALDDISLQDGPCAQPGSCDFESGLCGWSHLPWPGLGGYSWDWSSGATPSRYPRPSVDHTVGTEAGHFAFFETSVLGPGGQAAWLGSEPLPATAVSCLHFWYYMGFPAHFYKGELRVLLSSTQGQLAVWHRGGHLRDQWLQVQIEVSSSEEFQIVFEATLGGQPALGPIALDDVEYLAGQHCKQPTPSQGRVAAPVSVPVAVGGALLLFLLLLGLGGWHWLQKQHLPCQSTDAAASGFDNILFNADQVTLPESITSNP
row,ratio of signal from immunoprecipitation relative to input,Binder
1,~1 ratio IP to input,"LRP6 (receptor, human (endogenous in HEK293), UniProt O75581 20-1613, looked up, LRP6, endogenous in HEK293 cells, detected with rabbit anti-LRP6 (CST 2560); also called total LRP6; source: endogenous, HEK293 lysate) APLLLYANRRDLRLVDATNGKENATIVVGGLEDAAAVDFVFSHGLIYWSDVSEEAIKRTEFNKTESVQNVVVSGLLSPDGLACDWLGEKLYWTDSETNRIEVSNLDGSLRKVLFWQELDQPRAIALDPSSGFMYWTDWGEVPKIERAGMDGSSRFIIINSEIYWPNGLTLDYEEQKLYWADAKLNFIHKSNLDGTNRQAVVKGSLPHPFALTLFEDILYWTDWSTHSILACNKYTGEGLREIHSDIFSPMDIHAFSQQRQPNATNPCGIDNGGCSHLCLMSPVKPFYQCACPTGVKLLENGKTCKDGATELLLLARRTDLRRISLDTPDFTDIVLQLEDIRHAIAIDYDPVEGYIYWTDDEVRAIRRSFIDGSGSQFVVTAQIAHPDGIAVDWVARNLYWTDTGTDRIEVTRLNGTMRKILISEDLEEPRAIVLDPMVGYMYWTDWGEIPKIERAALDGSDRVVLVNTSLGWPNGLALDYDEGKIYWGDAKTDKIEVMNTDGTGRRVLVEDKIPHIFGFTLLGDYVYWTDWQRRSIERVHKRSAEREVIIDQLPDLMGLKATNVHRVIGSNPCAEENGGCSHLCLYRPQGLRCACPIGFELISDMKTCIVPEAFLLFSRRADIRRISLETNNNNVAIPLTGVKEASALDFDVTDNRIYWTDISLKTISRAFMNGSALEHVVEFGLDYPEGMAVDWLGKNLYWADTGTNRIEVSKLDGQHRQVLVWKDLDSPRALALDPAEGFMYWTEWGGKPKIDRAAMDGSERTTLVPNVGRANGLTIDYAKRRLYWTDLDTNLIESSNMLGLNREVIADDLPHPFGLTQYQDYIYWTDWSRRSIERANKTSGQNRTIIQGHLDYVMDILVFHSSRQSGWNECASSNGHCSHLCLAVPVGGFVCGCPAHYSLNADNRTCSAPTTFLLFSQKSAINRMVIDEQQSPDIILPIHSLRNVRAIDYDPLDKQLYWIDSRQNMIRKAQEDGSQGFTVVVSSVPSQNLEIQPYDLSIDIYSRYIYWTCEATNVINVTRLDGRSVGVVLKGEQDRPRAVVVNPEKGYMYFTNLQERSPKIERAALDGTEREVLFFSGLSKPIALALDSRLGKLFWADSDLRRIESSDLSGANRIVLEDSNILQPVGLTVFENWLYWIDKQQQMIEKIDMTGREGRTKVQARIAQLSDIHAVKELNLQEYRQHPCAQDNGGCSHICLVKGDGTTRCSCPMHLVLLQDELSCGEPPTCSPQQFTCFTGEIDCIPVAWRCDGFTECEDHSDELNCPVCSESQFQCASGQCIDGALRCNGDANCQDKSDEKNCEVLCLIDQFRCANGQCIGKHKKCDHNVDCSDKSDELDCYPTEEPAPQATNTVGSVIGVIVTIFVSGTVYFICQRMLCPRMKGDGETMTNDYVVHGPASVPLGYVPHPSSLSGSLPGMSRGKSMISSLSIMGGSSGPPYDRAHVTGASSSSSSSTKGTYFPAILNPPPSPATERSHYTMEFGYSSNSPSTHRSYSYRPYSYRHFAPPTTPCSTDVCDSDYAPSRRMTSVATAKGYTSDLNYDSEPVPPPPTPRSQYLSAEENYESCPPSPYTERSYSHHLYPPPPSPCTDSS"
2,~1 ratio IP to input,"phospho-LRP6 (Ser 1490) (receptor, human (endogenous in HEK293), UniProt O75581 20-1613, looked up, phosphoserine at 1490, LRP6 phosphorylated at Ser 1490, endogenous in HEK293 cells, detected with rabbit anti-phospho-LRP6 (Ser 1490) (CST 2568); also called p-LRP6; source: endogenous, HEK293 lysate) APLLLYANRRDLRLVDATNGKENATIVVGGLEDAAAVDFVFSHGLIYWSDVSEEAIKRTEFNKTESVQNVVVSGLLSPDGLACDWLGEKLYWTDSETNRIEVSNLDGSLRKVLFWQELDQPRAIALDPSSGFMYWTDWGEVPKIERAGMDGSSRFIIINSEIYWPNGLTLDYEEQKLYWADAKLNFIHKSNLDGTNRQAVVKGSLPHPFALTLFEDILYWTDWSTHSILACNKYTGEGLREIHSDIFSPMDIHAFSQQRQPNATNPCGIDNGGCSHLCLMSPVKPFYQCACPTGVKLLENGKTCKDGATELLLLARRTDLRRISLDTPDFTDIVLQLEDIRHAIAIDYDPVEGYIYWTDDEVRAIRRSFIDGSGSQFVVTAQIAHPDGIAVDWVARNLYWTDTGTDRIEVTRLNGTMRKILISEDLEEPRAIVLDPMVGYMYWTDWGEIPKIERAALDGSDRVVLVNTSLGWPNGLALDYDEGKIYWGDAKTDKIEVMNTDGTGRRVLVEDKIPHIFGFTLLGDYVYWTDWQRRSIERVHKRSAEREVIIDQLPDLMGLKATNVHRVIGSNPCAEENGGCSHLCLYRPQGLRCACPIGFELISDMKTCIVPEAFLLFSRRADIRRISLETNNNNVAIPLTGVKEASALDFDVTDNRIYWTDISLKTISRAFMNGSALEHVVEFGLDYPEGMAVDWLGKNLYWADTGTNRIEVSKLDGQHRQVLVWKDLDSPRALALDPAEGFMYWTEWGGKPKIDRAAMDGSERTTLVPNVGRANGLTIDYAKRRLYWTDLDTNLIESSNMLGLNREVIADDLPHPFGLTQYQDYIYWTDWSRRSIERANKTSGQNRTIIQGHLDYVMDILVFHSSRQSGWNECASSNGHCSHLCLAVPVGGFVCGCPAHYSLNADNRTCSAPTTFLLFSQKSAINRMVIDEQQSPDIILPIHSLRNVRAIDYDPLDKQLYWIDSRQNMIRKAQEDGSQGFTVVVSSVPSQNLEIQPYDLSIDIYSRYIYWTCEATNVINVTRLDGRSVGVVLKGEQDRPRAVVVNPEKGYMYFTNLQERSPKIERAALDGTEREVLFFSGLSKPIALALDSRLGKLFWADSDLRRIESSDLSGANRIVLEDSNILQPVGLTVFENWLYWIDKQQQMIEKIDMTGREGRTKVQARIAQLSDIHAVKELNLQEYRQHPCAQDNGGCSHICLVKGDGTTRCSCPMHLVLLQDELSCGEPPTCSPQQFTCFTGEIDCIPVAWRCDGFTECEDHSDELNCPVCSESQFQCASGQCIDGALRCNGDANCQDKSDEKNCEVLCLIDQFRCANGQCIGKHKKCDHNVDCSDKSDELDCYPTEEPAPQATNTVGSVIGVIVTIFVSGTVYFICQRMLCPRMKGDGETMTNDYVVHGPASVPLGYVPHPSSLSGSLPGMSRGKSMISSLSIMGGSSGPPYDRAHVTGASSSSSSSTKGTYFPAILNPPPSPATERSHYTMEFGYSSNSPSTHRSYSYRPYSYRHFAPPTTPCSTDVCDSDYAPSRRMTSVATAKGYTSDLNYDSEPVPPPPTPRSQYLSAEENYESCPPSPYTERSYSHHLYPPPPSPCTDSS"

# From PMC11125477 (PLOS ONE, 2024)
